Measurements published in patent publication US7371551B1, “Feedback-resistant homoserine transsuccinylases” (priority 2002, dated 2008).
Residue numbers refer to the chain shown, from its start.

Key:
[1] = target: T1, E. coli homoserine transsuccinylase (MetA, SEQ ID No. 2) variant pSLmetAN, Asp101 replaced with Asn (Escherichia coli, UniProt P07623, D101N); test: Inhibition of homoserine transsuccinylase activity by SAM (cell extract, DTNB assay at 412 nm); type: biochemical; conditions: pH 7.5, read-out: Activity (%) in the presence of 1 mM SAM
T1 construct: made in house; host or cells: E. coli W3110 (ATCC 27325), cell extract
T1 sequence (P07623 2-309 D101N): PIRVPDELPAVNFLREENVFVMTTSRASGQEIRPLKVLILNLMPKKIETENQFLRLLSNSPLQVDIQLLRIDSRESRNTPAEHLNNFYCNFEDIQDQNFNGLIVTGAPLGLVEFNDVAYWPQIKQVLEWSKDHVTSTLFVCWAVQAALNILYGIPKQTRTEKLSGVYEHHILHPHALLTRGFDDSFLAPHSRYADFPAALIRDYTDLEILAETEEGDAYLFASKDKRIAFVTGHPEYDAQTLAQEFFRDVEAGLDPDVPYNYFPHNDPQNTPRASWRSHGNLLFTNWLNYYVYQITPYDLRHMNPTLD
Method: (§1) In order to determine the sensitivity of the activity of the different homoserine transsuccinylases to SAM, it is possible, for example, to carry out an activity test as described in Lee L. W. et al., J. Biol. Chem. 241, 5479-5480 (1966). In this method, the enzyme extract is incubated with homoserine and succinyl-CoA. After various times, a part of the test assay sample is stopped by adding it to a mixture of ethanol, water, and 5,5′-dithiobis(2-nitrobenzoic acid). The absorption is determined photometrically at 412 nm. The described test is suitable, for example, for determining the sensitivity of the homoserine transsuccinylases to SAM.
(§2) The influence of SAM on the activities of the different homoserine transsuccinylases was determined by quantifying the activity in the presence of different concentrations of SAM (Cl salt, Sigma). The cell extracts were grown and prepared as described in Example 3. The activity test was carried out as described in Lee L. W. et al., J. Biol. Chem. 241, 5479-5480 (1966), with the enzyme extract being incubated with 50 mM potassium phosphate buffer, pH 7.5, 3 mM homoserine and 0.3 mM succinyl-CoA. After various times, 100 μl volumes of test mixture were stopped by adding them in each case to a mixture of 400 μl of ethanol, 400 μl of water and 100 μl of 10 mM 5,5′-dithiobis(2-nitrobenzoic acid). After the resulting mixture had been incubated at room temperature for 5 minutes, the absorption was determined photometrically at 412 nm. After the protein concentration had been determined, the enzyme activity was calculated using the extinction coefficient. The Ki was determined as a measure of the ability of SAM to inhibit the activity.

[2] = target: T2, E. coli homoserine transsuccinylase (MetA, SEQ ID No. 2) variant pSLmetA*A, Tyr294 replaced with Ala (Escherichia coli, UniProt P07623, Y294A); test: as above; type: biochemical; conditions: pH 7.5, read-out: Activity (%) in the presence of 1 mM SAM
T2 construct: made in house; host or cells: E. coli W3110 (ATCC 27325), cell extract
T2 sequence (P07623 2-309 Y294A): as the sequence (P07623 2-309 D101N) above, with N100D, Y293A counted along it
Method: as §1, §2

[3] = target: T3, E. coli homoserine transsuccinylase (MetA, SEQ ID No. 2) variant pSLmetA*Q, Tyr294 replaced with Gln (Escherichia coli, UniProt P07623, Y294Q); test: as above; type: biochemical; conditions: pH 7.5, read-out: Activity (%) in the presence of 1 mM SAM
T3 construct: made in house; host or cells: E. coli W3110 (ATCC 27325), cell extract
T3 sequence (P07623 2-309 Y294Q): as the sequence (P07623 2-309 D101N) above, with N100D, Y293Q counted along it
Method: as §1, §2

[4] = target: T4, E. coli homoserine transsuccinylase (MetA, SEQ ID No. 2) variant pKP446, Tyr294 replaced with Cys (Escherichia coli, UniProt P07623, Y294C); test: as above; type: biochemical; conditions: pH 7.5, read-out: Activity (%) in the presence of 1 mM SAM
T4 construct: made in house; host or cells: E. coli W3110 (ATCC 27325), cell extract
T4 sequence (P07623 2-309 Y294C): as the sequence (P07623 2-309 D101N) above, with N100D, Y293C counted along it
Method: as §1, §2

[5] = target: T5, E. coli homoserine transsuccinylase (MetA, SEQ ID No. 2) variant pSLmetA*0, amino acid 294 (Tyr) deleted (Escherichia coli, UniProt P07623, DEL294-294); test: as above; type: biochemical; conditions: pH 7.5, read-out: Activity (%) in the presence of 1 mM SAM
T5 construct: made in house; host or cells: E. coli W3110 (ATCC 27325), cell extract
T5 sequence (P07623 other isoform, or with tags, fused parts or gaps DEL294-294): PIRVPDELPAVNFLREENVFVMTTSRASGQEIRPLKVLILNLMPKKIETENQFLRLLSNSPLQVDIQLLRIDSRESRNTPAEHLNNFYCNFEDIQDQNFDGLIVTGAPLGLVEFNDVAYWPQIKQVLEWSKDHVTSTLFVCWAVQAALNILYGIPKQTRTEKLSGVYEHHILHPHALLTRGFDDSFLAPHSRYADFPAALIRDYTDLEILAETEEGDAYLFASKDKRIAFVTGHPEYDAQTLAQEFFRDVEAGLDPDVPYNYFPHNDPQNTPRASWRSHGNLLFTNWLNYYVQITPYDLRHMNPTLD
Method: as §1, §2

[6] = target: T6, E. coli homoserine transsuccinylase (MetA, SEQ ID No. 2) variant pSLmetA*K, Tyr294 replaced with Lys (Escherichia coli, UniProt P07623, Y294K); test: as above; type: biochemical; conditions: pH 7.5, read-out: Activity (%) in the presence of 1 mM SAM
T6 construct: made in house; host or cells: E. coli W3110 (ATCC 27325), cell extract
T6 sequence (P07623 2-309 Y294K): as the sequence (P07623 2-309 D101N) above, with N100D, Y293K counted along it
Method: as §1, §2

[7] = target: T7, E. coli homoserine transsuccinylase (MetA, SEQ ID No. 2) variant pSLmetA*P, Tyr294 replaced with Pro (Escherichia coli, UniProt P07623, Y294P); test: as above; type: biochemical; conditions: pH 7.5, read-out: Activity (%) in the presence of 1 mM SAM
T7 construct: made in house; host or cells: E. coli W3110 (ATCC 27325), cell extract
T7 sequence (P07623 2-309 Y294P): as the sequence (P07623 2-309 D101N) above, with N100D, Y293P counted along it
Method: as §1, §2

[8] = target: T8, E. coli homoserine transsuccinylase (MetA, SEQ ID No. 2) variant pSLmetA*L, Tyr294 replaced with Leu (Escherichia coli, UniProt P07623, Y294L); test: as above; type: biochemical; conditions: pH 7.5, read-out: Activity (%) in the presence of 1 mM SAM
T8 construct: made in house; host or cells: E. coli W3110 (ATCC 27325), cell extract
T8 sequence (P07623 2-309 Y294L): as the sequence (P07623 2-309 D101N) above, with N100D, Y293L counted along it
Method: as §1, §2

[9] = target: T1, E. coli homoserine transsuccinylase (MetA, SEQ ID No. 2) variant pSLmetAN, Asp101 replaced with Asn; test: biochemical; conditions: pH 7.6, read-out: Activity (%) in the presence of 1 mM L-methionine
Text: (§3) Any method which enables the activity of the enzyme to be determined in the presence of L-methionine or SAM can be used for determining the sensitivity of the homoserine transsuccinylase to L-methionine and/or SAM. For example, the homoserine transsuccinylase activity can be determined by following the method described by Kredich and Tomkins for determining the activity of serine acetyltransferases (Kredich N. M. and Tomkins G. M., J. Biol. Chem. 241, 4955-4965 (1966)). The enzyme activity is measured in an assay sample which contains homoserine and succinyl-CoA. The reaction is started by adding enzyme and monitored in a spectrophotometer by way of the decrease in the extinction at 232 nm which results from cleavage of the thioester bond in the succinyl-coenzyme A. The described test is suitable for determining the sensitivity of the homoserine transsuccinylases to methionine. The inhibition of homoserine transsuccinylase activity is tested in the presence of different concentrations of L-methionine in the reaction mixture.
(§4) The activity, and the influence of L-methionine on the activity, of the different homoserine transsuccinylases were determined by means of an enzyme test using cell extracts in which the respective proteins had been produced. For this, the corresponding plasmids, encoding altered homoserine transsuccinylases, were introduced, by transformation, into the E. coli strain W3110 (ATCC 27325) using methods known to the skilled person. The transformation mixture was spread on LB-tetracycline agar plates (10 g of tryptone/l, 5 g of yeast extract/l, 5 g of NaCl/l, 15 g of agar/l and 15 mg of tetracycline/l) and incubated at 37° C. overnight. The resulting transformants were grown in SM1 medium (for 1 l of medium: CaCl2×2H2O, 0.0147 g, MgSO4×7H2O, 0.3 g, Na2MoO4×2H2O, 0.15 mg, H3BO3, 2.5 mg, CoCl2×6H2O, 0.7 mg, CuSO4×5H2O, 0.25 mg, MnCl2×4H2O, 1.6 mg, ZnSO4×7H2O, 0.3 mg, KH2PO4, 3.0 g, K2HPO4, 12.0 g, (NH4)2SO4, 5 g, NaCl, 0.6 g, FeSO4×7H2O, 0.002 g, Na3-citrate×2H2O, 1 g, glucose, 5 g, tryptone, 1 g, yeast extract, 0.5 g), centrifuged down at an absorption of approx. 0.8 at 600 nm, washed in 50 mM Tris pH 7.5, and centrifuged down once again. The cells were resuspended in 50 mM Tris/Cl, pH 7.5, 2 mM dithiothreitol, 0.5 mM phenylmethylsulfonyl fluoride and disrupted in a French press. The supernatant from a further centrifugation was used as the enzyme extract in the test. The enzyme activity was determined, in a mixture containing 50 mM Tris/Cl, pH 7.6, 1 mM homoserine and 0.1 mM succinyl-CoA, by photometrically quantifying, by means of the decrease in the extinction at 232 nm, the coenzyme A formed in the reaction, following the method described by Kredich and Tomkins for determining the activity of serine acetyltransferases (Kredich N. M. and Tomkins G. M., J. Biol. Chem. 241, 4955-4965 (1966)). The effect of added L-methionine on the activity was determined and the inhibitability was quantified as a Ki value. The Ki which is determined is the concentration of L-methionine at which the activity of the homoserine transsuccinylase is only 50% of its activity in the absence of L-methionine.

[10] = target: T2, E. coli homoserine transsuccinylase (MetA, SEQ ID No. 2) variant pSLmetA*A, Tyr294 replaced with Ala; test: biochemical; conditions: pH 7.6, read-out: Activity (%) in the presence of 1 mM L-methionine
Text: as §3, §4

[11] = target: T3, E. coli homoserine transsuccinylase (MetA, SEQ ID No. 2) variant pSLmetA*Q, Tyr294 replaced with Gln; test: biochemical; conditions: pH 7.6, read-out: Activity (%) in the presence of 1 mM L-methionine
Text: as §3, §4

[12] = target: T4, E. coli homoserine transsuccinylase (MetA, SEQ ID No. 2) variant pKP446, Tyr294 replaced with Cys; test: biochemical; conditions: pH 7.6, read-out: Activity (%) in the presence of 1 mM L-methionine
Text: as §3, §4

[13] = target: T5, E. coli homoserine transsuccinylase (MetA, SEQ ID No. 2) variant pSLmetA*0, amino acid 294 (Tyr) deleted; test: biochemical; conditions: pH 7.6, read-out: Activity (%) in the presence of 1 mM L-methionine
Text: as §3, §4

[14] = target: T6, E. coli homoserine transsuccinylase (MetA, SEQ ID No. 2) variant pSLmetA*K, Tyr294 replaced with Lys; test: biochemical; conditions: pH 7.6, read-out: Activity (%) in the presence of 1 mM L-methionine
Text: as §3, §4

[15] = target: T7, E. coli homoserine transsuccinylase (MetA, SEQ ID No. 2) variant pSLmetA*P, Tyr294 replaced with Pro; test: biochemical; conditions: pH 7.6, read-out: Activity (%) in the presence of 1 mM L-methionine
Text: as §3, §4

[16] = target: T8, E. coli homoserine transsuccinylase (MetA, SEQ ID No. 2) variant pSLmetA*L, Tyr294 replaced with Leu; test: biochemical; conditions: pH 7.6, read-out: Activity (%) in the presence of 1 mM L-methionine
Text: as §3, §4

[17] = tested on: homoserine transsuccinylase; test: Homoserine transsuccinylase enzyme test using cell extracts, decrease in extinction at 232 nm, with and without L-methionine; type: biochemical, E. coli; conditions: for Activity (%) in the presence of 1 mM L-methionine: activity in the absence of L-methionine corresponds to 100%; for Activity (U/mg): cell extract of E. coli W3110 transformants, 1 mM homoserine, 0.1 mM succinyl-CoA, 50 mM Tris/Cl pH 7.6; for Ki: concentration of L-methionine at which activity is only 50% of activity in its absence
Text: as §3, §4

[18] = tested on: homoserine transsuccinylase; test: Homoserine transsuccinylase activity test (Lee et al.), 5,5'-dithiobis(2-nitrobenzoic acid), absorption at 412 nm, with and without SAM; type: biochemical, E. coli; conditions: for Activity (%) in the presence of 1 mM SAM: activity in the absence of SAM corresponds to 100%; for Ki: SAM (Cl salt, Sigma) as inhibitor; for Activity (U/mg): cell extract, 3 mM homoserine, 0.3 mM succinyl-CoA, 50 mM potassium phosphate buffer pH 7.5
Method: as §1, §2

C[S+](CC[C@H](N)C(=O)[O-])C[C@H]1O[C@@H](n2cnc3c(N)ncnc32)[C@H](O)[C@@H]1O (stereo partly shown) [SAM, S-Adenosylmethionine]
activity at 1000 µM [1]: 91% | activity at 1000 µM [2]: 95% | activity at 1000 µM [3]: 87% | activity at 1000 µM [4]: 92% | activity at 1000 µM [5]: 96% | activity at 1000 µM [6]: 90% | activity at 1000 µM [7]: 98% | activity at 1000 µM [8]: 80%

CSCC[C@H](N)C(=O)O [L-methionine]
activity at 1000 µM [9]: 86% | activity at 1000 µM [10]: 94% | activity at 1000 µM [11]: 95% | activity at 1000 µM [12]: 96% | activity at 1000 µM [13]: 98% | activity at 1000 µM [14]: 92% | activity at 1000 µM [15]: 91% | activity at 1000 µM [16]: 89%

B1: pSLmetAY: MetA variant with Tyr instead of Asp at position 101 (protein, UniProt P07623 2-309, looked up, variant D101Y)
Homoserine …: PIRVPDELPAVNFLREENVFVMTTSRASGQEIRPLKVLILNLMPKKIETENQFLRLLSNSPLQVDIQLLRIDSRESRNTPAEHLNNFYCNFEDIQDQNFYGLIVTGAPLGLVEFNDVAYWPQIKQVLEWSKDHVTSTLFVCWAVQAALNILYGIPKQTRTEKLSGVYEHHILHPHALLTRGFDDSFLAPHSRYADFPAALIRDYTDLEILAETEEGDAYLFASKDKRIAFVTGHPEYDAQTLAQEFFRDVEAGLDPDVPYNYFPHNDPQNTPRASWRSHGNLLFTNWLNYYVYQITPYDLRHMNPTLD
Activity (%) in the presence of 1 mM L-methionine [17]: 93% | Activity (U/mg) [17]: 0.094 U/mg | Ki [17]: 10 mM | Activity (%) in the presence of 1 mM SAM [18]: 95% | Ki [18]: 14 mM | Activity (U/mg) [18]: 0.61 U/mg

B2: pSLmetAA: MetA variant with Ala instead of Asp at position 101 (protein, UniProt P07623 2-309, looked up, variant D101A)
Homoserine …: B1 Homoserine … with Y100A
Activity (%) in the presence of 1 mM L-methionine [17]: 96% | Activity (U/mg) [17]: 0.031 U/mg | Ki [17]: 6 mM | Activity (%) in the presence of 1 mM SAM [18]: 90% | Ki [18]: 8 mM | Activity (U/mg) [18]: 0.20 U/mg

B3: pSLmetAI: MetA variant with Ile instead of Asp at position 101 (protein, UniProt P07623 2-309, looked up, variant D101I)
Homoserine …: B1 Homoserine … with Y100I
Activity (%) in the presence of 1 mM L-methionine [17]: 95% | Activity (U/mg) [17]: 0.107 U/mg | Ki [17]: 9.5 mM | Activity (%) in the presence of 1 mM SAM [18]: 93% | Ki [18]: 12 mM | Activity (U/mg) [18]: 0.68 U/mg
